PMC6219724

Columns and labels:
[1] = molecular target: dynamic microtubules grown from coverslip-anchored GMPCPP-stabilized seeds with purified bovine brain tubulin (bovine) (UniProt Q6B856); test: laser trap bead assay; protein held on streptavidin beads by biotinylated His5 antibody (60, 600, 6,500 nM); dynamic microtubules from coverslip-anchored seeds, 6 µM bovine brain tubulin; preload 0.8 ± 0.3 pN (3.3 ± 0.5 pN for Ndc80 complex), friction coefficient on the lattice, then force ramp of 0.25 pN/s until rupture of the tip attachment
[2] = molecular target: biotinylated Taxol-stabilized microtubules grown from bovine tubulin (bovine) (UniProt Q6B856); test: single-molecule TIRF microscopy; biotinylated Taxol-stabilized microtubules tethered to the coverslip; 1.5 nM 549SNAP-tagged KKT4 in BRB80, 1 mg/ml κ-casein, 1 mM DTT, 10 µM Taxol; residence time, lattice diffusion and brightness of single particles

6HIS-KKT4 115-343 (domain or fragment)
average rupture force of tip attachments [1]: 2.1 pN

charge-reversal mutant KKT4 115-343 (R123E, K132E, R154E) (domain or fragment)
average rupture force of tip attachments [1]: 1.6 pN

full-length KKT4 fused with an N-terminal SNAP-6HIS-3FLAG tag, labeled with 549SNAP dye (natural protein)
average residence time [2]: 5.4 s | diffusion coefficient on the microtubule lattice [2]: 0.0071 µm^2/s

full-length charge-reversal mutant KKT4 (R123E, K132E, R154E), 549SNAP-tagged (natural protein)
fold change of the average residence time against wild-type KKT4 [2]: 2 fold shorter | fold change of the lattice diffusion against wild-type KKT4 [2]: 2 fold faster
